# Results as given in patent publication US20060063917A1, “Selection of peptide ligands specific for baculovirus DNA-binding protein from the FliTrxTM random peptide display library” (Vista Biologicals Corporation, priority 2004, published 2006).
# No end group written: not given here.
# T1: His.Tag AcNPV DBP (Autographa californica nuclear polyhedrosis virus, UniProt P41430)
# T1 construct: made in house; host or cells: E. coli BL21 (DE3)
# T1 sequence (P41430 whole entry, looked up): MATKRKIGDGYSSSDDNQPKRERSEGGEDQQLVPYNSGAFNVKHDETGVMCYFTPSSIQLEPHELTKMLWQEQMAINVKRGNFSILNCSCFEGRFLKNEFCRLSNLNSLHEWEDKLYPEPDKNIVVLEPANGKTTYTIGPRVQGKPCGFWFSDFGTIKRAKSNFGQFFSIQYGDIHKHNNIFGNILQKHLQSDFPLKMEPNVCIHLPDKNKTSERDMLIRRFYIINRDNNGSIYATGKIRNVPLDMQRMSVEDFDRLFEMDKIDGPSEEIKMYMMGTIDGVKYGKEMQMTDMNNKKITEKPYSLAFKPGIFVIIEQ
# Target: T1, His.Tag AcNPV DBP
# Test: ELISA for His.Tag AcNPV DBP screening using the FliTrx protein solution
# Assay type: binding, Autographa californica nucleopolyhedrovirus (AcNPV)
# Conditions: wells coated with FliTrx protein solution of positive clones; 6 μg His.Tag AcNPV DBP added; mean of duplicate; mean O.D. of negative controls 0.14
# Protocol: (§1) ELISA Protocols for His.Tag AcNPV DBP Screening
# (§2) ELISA procedure was used for analysis of His.Tag AcNPV DBP as a target. The polystyrene microtitration plates (PolySorp™ Surface, Immuno™ Plate, Nunc) were used as the solid phase for the assay. All washes were performed four times with phosphate-buffered saline (PBS) containing 0.05% (V/V) Tween® 20 (PBS-T). The substrate solution for alkaline phosphatase (p-nitrophenyl phosphate, pNPP, 1 mg/ml, in 0.2 M Tris-HCl buffer, pH 7) was from Sigma, St. Louis, Mo. The reaction was stopped by the addition of 3 M NaOH (50 μl per well). The optical density at 405 nm (O.D.λ=405 nm) was measured in a microplate colorimeter (Molecular Devices, Thermo max Microplate Reader).
# 1. Using the FliTrx™ Protein Solution
# Wells of the microtitration plates were coated with the FliTrx™ protein solutions obtained from induced culture cell of positive clones that contain the peptides recognized by His.Tag AcNPV DBP (50 μl per well). To account for plate binders, empty plates were used as negative controls. After incubation overnight at +4° C., the plates were washed, and the uncoated attachment sites on the plates were saturated by incubation for 1 hour at 37° C. with a solution of 2% nonfat dry milk in PBS-T: PBS-T-M (200 μl per well). The plates were then washed, and an aliquot of 100 μl (6 μg) of the purified His.Tag AcNPV DBP was added to both the target plate and the control plate. Plates were incubated for. 1 hour at 37° C. The plates were then washed, and 100 μl of a 1:1,000 dilution of mouse monoclonal Ig G1 antibody to penta-His™ (QIAGEN, Valencia, Calif.) in PBS-T-M were added. After being incubated again for 1 hour at 37° C., the plates were washed, and 100 μl of a 1:1,000 dilution of goat anti-mouse IgG conjugated to alkaline phosphatase (Bio-Rad Laboratories, Hercules, Calif.) were added. After being incubated again for 1 hour at 37° C., the plates were washed, and substrate solution (200 [l per well) was added. After incubation for 1 hour at 37° C., the reaction was stopped.
row,Molecule,"ELISA (O.D. λ = 405 nm), affinity for His.Tag AcNPV DBP"
1,"PAQAQTRRRRPR (baculovirus) [Peptide ligand No. 5, FliTrx selected dodecapeptide ligand recognized by His.Tag AcNPV DBP]",1.35
2,"AGRKGERGSVLQ (baculovirus) [Peptide ligand No. 1, FliTrx selected dodecapeptide ligand recognized by His.Tag AcNPV DBP]",1.21
3,"GGGGRRSGGACP (baculovirus) [Peptide ligand No. 4, FliTrx selected dodecapeptide ligand recognized by His.Tag AcNPV DBP]",1.13
4,"ADYGKGLRRAMG (baculovirus) [Peptide ligand No. 3, FliTrx selected dodecapeptide ligand recognized by His.Tag AcNPV DBP]",1.11
5,"AMLRAACVVRSM (baculovirus) [Peptide ligand No. 2, FliTrx selected dodecapeptide ligand recognized by His.Tag AcNPV DBP]",0.56

# Target: T1, His.Tag AcNPV DBP
# Test: ELISA for His.Tag AcNPV DBP screening using the biotinylated synthesized peptide ligand
# Assay type: binding, Autographa californica nucleopolyhedrovirus (AcNPV)
# Conditions: wells coated with 2 μg His.Tag AcNPV DBP; 25 μg biotinylated peptide added; negative control (empty) plate gave 0.30
# Protocol: as §1, §2
# 2. Using the Biotinylated Synthesized Peptide Ligand
# Wells of the microtitration plates were coated with 50 μl (2 μg) of purified His.Tag AcNPV DBP. To account for plate binders, empty plates were used as negative controls. After incubation overnight at +4° C., the plates were washed, and the uncoated attachment sites on the plates were saturated by incubation for 1 hour at 37° C. with PBS-T-M (200 μl per well). The plates were then washed, and an aliquot of 100 μl (25 μg) of the biotinylated synthesized peptide ligand No. 4 (SEQ ID NO. 6) (Invitrogen, Carlsbad, Calif.) was added to both the target plate and the control plate. Plates were incubated for 1 hour at 37° C. […]
row,Molecule,"mean O.D. value, target plate"
1,"biotinylated synthesized peptide ligand No. 4: biotinylated synthesized peptide ligand No. 4 (SEQ ID NO. 6), GGGGRRSGGACP (also: biotinylated)",about 4.0

# Target: recombinant His.Tag AcNPV DBP (Autographa californica nucleopolyhedrovirus DNA-binding protein) (Autographa californica nucleopolyhedrovirus (AcNPV))
# Test: ELISA: 2 ug His.Tag AcNPV DBP coated, 25 ug biotinylated peptide added, detected with anti-biotin BN-34-AP; empty negative control plate 0.30
# Conditions: not given
row,Molecule,mean O.D. (405 nm)
1,"GGGGRRSGGACP (also: biotinylated, position not given here) [biotinylated synthesized peptide ligand No. 4 (SEQ ID NO. 6)]",4 O.D.

# Target: recombinant His.Tag AcNPV DBP (Autographa californica nucleopolyhedrovirus DNA-binding protein) (Autographa californica nucleopolyhedrovirus (AcNPV))
# Test: ELISA: FliTrx protein solution coated, 6 ug His.Tag AcNPV DBP added, detected with anti-penta-His and goat anti-mouse IgG-AP; mean of duplicate; negative controls (empty plates) 0.14
# Conditions: not given
row,Molecule,ELISA (O.D. λ = 405 nm) (O.D. λ = 405 nm)
1,"ADYGKGLRRAMG (peptide, part only; not given: FliTrx scaffold, part only, also: inserted in thioredoxin active-site loop of FliTrx fusion protein) [FliTrx selected peptide ligand No. 3 (…), as FliTrx protein solution]",1.11
2,"PAQAQTRRRRPR (peptide, part only; not given: FliTrx scaffold, part only, also: inserted in thioredoxin active-site loop of FliTrx fusion protein) [FliTrx selected peptide ligand No. 5 (…), as FliTrx protein solution]",1.35
3,"AGRKGERGSVLQ (peptide, part only; not given: FliTrx scaffold, part only, also: inserted in thioredoxin active-site loop of FliTrx fusion protein) [FliTrx selected peptide ligand No. 1 (…), as FliTrx protein solution]",1.21
4,"GGGGRRSGGACP (peptide, part only; not given: FliTrx scaffold, part only, also: inserted in thioredoxin active-site loop of FliTrx fusion protein) [FliTrx selected peptide ligand No. 4 (…), as FliTrx protein solution]",1.13
5,"AMLRAACVVRSM (peptide, part only; not given: FliTrx scaffold, part only, also: inserted in thioredoxin active-site loop of FliTrx fusion protein) [FliTrx selected peptide ligand No. 2 (…), as FliTrx protein solution]",0.56
